“Also recorded” adds a separate entry of the source.
Test: Iron, blood and bone parameters of wild type mice treated systemically with Tfr2-ECD
Assay type: in vivo
Procedure: For systemic Tfr2-ECD treatment, WT mice were treated every other day with Tfr2-ECD intraperitoneally for two weeks. Mice received 250 μg Tfr2-ECD (10 mg/kg BW) per injection for the first 10 days after BMP-2/matrigel injection into the muscle and 125 μg per injection (5 mg/kg BW) for the remaining time. This experiment was performed once with 8-10 mice per group. Drop-weight HO: This experiment was performed according to Liu et al. with minor modifications^65. Female 10-12-week-old WT mice were anesthetized and placed on a ridge of a plastic container over which the right leg was bent so the femur was lying horizontally. Mice received an injection of 1 μg BMP-2 mixed in 50 μl matrigel. Afterwards, a stainless-steel ball of 16 g (16 mm diameter) was dropped from a distance of 80 cm height onto the quadriceps muscle. Mice either received a single dose of 1 μg Tfr2-ECD, which was co-injected with the BMP-2/matrigel mixture, or palovarotene (Hycultec), which was administered daily by oral gavage. Palovarotene was dissolved in DMSO and diluted 1:4 with corn oil. Mice received palovarotene at a dose of 100 μg/mouse for the first five days and 50 μg/mouse for the remainder of the experiment (days 621). One group of mice received ibuprofen via the drinking water at a dose of […] which was changed every other day^66. Mice received methamizole (200 mg/kg) to reduce pain for the entire duration of the experiment. This experiment was performed twice with 6 mice per group.
Bone microarchitecture was analyzed using the vivaCT40 (Scanco Medical, Switzerland). The femur and the fourth lumbar vertebra were imaged at a resolution of 10.5 μm with X-ray energy of 70 kVp, […], and an integration time of 200 ms. The trabecular bone in the femur was assessed in the metaphysis 20 slices below the growth plate using 150 slices. In the vertebral bone, 150 slices were measured between both growth plates. The cortical bone was determined in the femoral midshaft (150 slices). Pre-defined scripts from Scanco were used for the evaluation.
The iron concentration in the liver was determined using 20 mg of dried liver tissue as previously published^8. The iron concentration in the bone was determined using atomic absorption spectroscopy (PerkinElmer Analyst 800) of dried bone tissue (bone marrow-flushed femur and tibia) as previously published^69.
The bone turnover markers C-terminal telopeptide (CTX) and pro-collagen type I N-terminal peptide (P1NP) were measured in the serum using ELISAs (IDS, Germany). Serum dickkopf-1 and BMP-2 were measured using ELISAs from R&D Systems (Germany). Mouse sclerostin was measured with an ELISA from Alpco (USA). Serum ferritin and iron were measured using routine methods for clinical analyses on a Roche Modular PPE analyzer. The transferrin saturation was determined using a total iron binding capacity kit from Randox.

[1] = wild type mice, systemic Tfr2-ECD, n = 8, means ± SD

B1: Tfr2-ECD: Recombinant full-length extracellular domain (aa 103-798) of murine Tfr2, His-tagged, expressed in Sf9 insect cells (protein, listed as Mus musculus)
chain: RGSCQACGDSVLVVDEDVNPEDSGRTTLYWSDLQAMFLRFLGEGRMEDTIRLTSLRERVAGSARMATLVQDILDKLSRQKLDHVWTDTHYVGLQFPDPAHANTLHWVDADGSVQEQLPLEDPEVYCPYSATGNATGKLVYAHYGRSEDLQDLKAKGVELAGSLLLVRVGITSFAQKVAVAQDFGAQGVLIYPDPSDFSQDPHKPGLSSHQAVYGHVHLGTGDPYTPGFPSFNQTQFPPVESSGLPSIPAQPISADIADQLLRKLTGPVAPQEWKGHLSGSPYRLGPGPDLRLVVNNHRVSTPISNIFACIEGFAEPDHYVVIGAQRDAWGPGAAKSAVGTAILLELVRTFSSMVSNGFRPRRSLLFISWDGGDFGSVGATEWLEGYLSVLHLKAVVYVSLDNSVLGDGKFHAKTSPLLVSLIENILKQVDSPNHSGQTLYEQVALTHPSWDAEVIQPLPMDSSAYSFTAFAGVPAVEFSFMEDDRVYPFLHTKEDTYENLHKMLRGRLPAVVQAVAQLAGQLLIRLSHDHLLPLDFGRYGDVVLRHIGNLNEFSGDLKERGLTLQWVYSARGDYIRAAEKLRKEIYSSERNDERLMRMYNVRIMRVEFYFLSQYVSPADSPFRHIFLGQGDHTLGALVDHLRMLRADGSGAASSRLTAGLGFQESRFRRQLALLTWTLQGAANALSGDVWNIDNNF
modifications: His tag
notes: Recombinant full-length extracellular domain (aa 103-798) of murine Tfr2, His-tagged, expressed in Sf9 insect cells
**Q.** Which results are given for B1?
**A.** Adverse effects on blood counts, iron parameters, bone homeostasis or gross morphology of internal organs (systemic Tfr2-ECD treatment, 2 week treatment period): No adverse effects; also recorded: did not show adverse effects; Differential counts, Lymphocytes [1]: 90.1 ± 4.35%; Differential counts, Monocytes [1]: 2.17 ± 2.55%; Differential counts, Neutrophils [1]: 7.33 ± 2.82%; HCT [1]: 0.51 ± 0.02; Heart iron [1]: 207.8 ± 54.1 μg/g dry tissue; Hemoglobin [1]: 9.77 ± 0.41 mmol/L; Kidney iron [1]: 112.6 ± 15.0 μg/g dry tissue; Liver iron [1]: 578.3 ± 273^ μg/g dry tissue; Plasma iron [1]: 30.1 ± 3.3 µmol/L; Platelets [1]: 385 ± 69.5 10^9/L; RBC [1]: 10.1 ± 0.40 10^12/L; Reticulocytes [1]: 197 ± 24.2 10^9/L; Spleen iron [1]: 620.2 ± 113^ μg/g dry tissue; WBC [1]: 11.0 ± 3.09 10^9/L; μCT BV/TV Femur [1]: 10.7 ± 3.09%; μCT BV/TV Vertebrae [1]: 24.1 ± 3.36%

From US20240199755A1, “ANTAGONISTS AND AGONISTS OF THE TRANSFERRIN RECEPTOR-2 FOR USE IN THE TREATMENT OF DISEASES OF THE BONE” (Kymab Limited, priority 2018, published 2024)
